The supplement of paper PMC10567573

B1: TRIM9 (parent)
chain: CVQCKMPVCYQCLEEGKHSSHEVK
B2: CDKN1A (parent)
chain: GRKRRQTSMTDFYHSKRRLIFSKR

Variants of: B1
Assay: protein stability index of a GFP-peptide fusion (GPS, HEK-293T) (PSI 1-6); higher = more stable
Conditions: c terminus: a fixed tail appended
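Also: lentivirally expressed fusions sorted by FACS into six bins by GFP to DsRed ratio, PSI derived from sequencing read proportions per bin multiplied by bin number.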

Row | Variant | protein stability index
1 | CVQCKMHVCYQCLEEGKHSSHEVK | 3.23
2 | CVQCKMEVCYQCLEEGKHSSHEVK | 4.35
3 | CVQCKMSVCYQCLEEGKHSSHEVK | 3.65
4 | CVQCKMPVCYQCLEEGKHSSWEVK | 2.96
5 | CVQCKMPVCYQCLEEGKHSSSEVK | 3.54
6 | CVQCKMPVCYQCLEEGKHSSLEVK | 3.87
7 | CVQCKMPVCYQCLEEGKHSSPEVK | 4.08
8 | CVQCKMPKCYQCLEEGKHSSHEVK | 5.1
9 | YVQCKMPVCYQCLEEGKHSSHEVK | 1.74
10 | QVQCKMPVCYQCLEEGKHSSHEVK | 4.03
11 | CVQCKMPVCYQCLEEGKHSSHDVK | 3.29
12 | CVQCKMPVCYQCLEEGKHSSHCVK | 4.27
13 | CVQCKMPVCYQCLEEGKHSSHHVK | 3.79
14 | CVQCKMPVCYQCLEEGPHSSHEVK | 3.75
15 | CVQCKMPVCYQCLEEGMHSSHEVK | 3.3
16 | CVQCKMPVCYQCLEEGIHSSHEVK | 3.61
17 | CVQCKMPVCYQCLEEGVHSSHEVK | 3.81
18 | CVQCKMPVCYQCLEEGLHSSHEVK | 3.86
19 | CVQCKMPVCYQCCEEGKHSSHEVK | 4.88
20 | CVQCKMPVCYQCYEEGKHSSHEVK | 3.48

Row | Variant | protein stability index
21 | CVQCKMPVCYQCKEEGKHSSHEVK | 4.53
22 | CVQCKMPVCYQCLYEGKHSSHEVK | 3.15
23 | CVQCKMPVCYQCLGEGKHSSHEVK | 4.14
24 | CVQCKMPVCYQCLDEGKHSSHEVK | 2.99
25 | CVQCKMPVCYQCLEHGKHSSHEVK | 3.36
26 | CVQCYMPVCYQCLEEGKHSSHEVK | 2.56
27 | CVQCTMPVCYQCLEEGKHSSHEVK | 3.38
28 | CVQCDMPVCYQCLEEGKHSSHEVK | 3.75
29 | CVQCKMPVCYQCLEEGKHSSHEVC | 4.97
30 | CVQCKMPVCYQCLEEGKHSSHEVP | 3.62
31 | CVQCKMPVCYQCLEEGKHSSHEVA | 4.28
32 | CVQCKMPVCYQMLEEGKHSSHEVK | 3.7
33 | CVQCKMPVCYQNLEEGKHSSHEVK | 3.67
34 | CVQCKMPVCYQKLEEGKHSSHEVK | 4.8
35 | CVQCKMPVCYQCLEEGKHGSHEVK | 3.67
36 | CVQCKMPVCYQCLEEGKHYSHEVK | 3.1
37 | CVQCKMPVCYQCLEEGKHWSHEVK | 3.35
38 | CVQCKMPVCYQCLEEGKHTSHEVK | 4.25
39 | CVQNKMPVCYQCLEEGKHSSHEVK | 3.3
40 | CVQYKMPVCYQCLEEGKHSSHEVK | 3.86

Row | Variant | protein stability index
41 | CVQLKMPVCYQCLEEGKHSSHEVK | 3.68
42 | CVQCKMPVCYVCLEEGKHSSHEVK | 3.27
43 | CVQCKMPVCYECLEEGKHSSHEVK | 3.57
44 | CVQCKMPVCYQCLEEGKHSPHEVK | 4.13
45 | CVQCKMPVCLQCLEEGKHSSHEVK | 4.61
46 | CVQCKMPVCVQCLEEGKHSSHEVK | 3.74
47 | CVQCKMPVCCQCLEEGKHSSHEVK | 3.58
48 | CVQCKPPVCYQCLEEGKHSSHEVK | 3.62
49 | CVQCKEPVCYQCLEEGKHSSHEVK | 4.37
50 | CVQCKHPVCYQCLEEGKHSSHEVK | 4.3
51 | CVQCKMPVCYQCLEERKHSSHEVK | 3.27
52 | CVQCKMPVCYQCLEETKHSSHEVK | 3.83
53 | CVQCKMPVCYQCLEEKKHSSHEVK | 3.57
54 | CVQCKMPVCYQCLEEWKHSSHEVK | 2.8
55 | CVQCKMPVCYQCLEEPKHSSHEVK | 3.9
56 | CVKCKMPVCYQCLEEGKHSSHEVK | 3.73
57 | CVNCKMPVCYQCLEEGKHSSHEVK | 4.49
58 | CVACKMPVCYQCLEEGKHSSHEVK | 2.96
59 | CVQCKMPVHYQCLEEGKHSSHEVK | 3.5
60 | CVQCKMPVTYQCLEEGKHSSHEVK | 4.41

Variants of: B2
Assay: as above
Conditions: c terminus: a fixed tail appended

Row | Variant | protein stability index
61 | M9P | 2.69
62 | M9G | 3.98
63 | S22A | 3.99
64 | S22M | 4.04
65 | S22R | 2.79
66 | T10P | 2.48
67 | T10G | 2.85
68 | T10A | 1.75
69 | R17D | 3.57
70 | R17C | 2.76
71 | R24I | 2.91
72 | R24Y | 2.91
73 | R24K | 2.24
74 | R24T | 2.21
75 | R4T | 3.95
76 | R2S | 3.05
77 | R2A | 2.05
78 | K3W | 2.56
79 | K3D | 3.2
80 | K3P | 2.16

Row | Variant | protein stability index
81 | H14F | 2.96
82 | H14C | 2.43
83 | F21E | 2.62
84 | F21N | 3.63
85 | Y13Q | 3.92
86 | Y13K | 2.66
87 | K16R | 4.25
88 | K16Y | 2.93
89 | K16C | 3.39
90 | K16T | 4.09
91 | G1F | 2.85
92 | G1R | 3.87
93 | G1M | 2.88
94 | G1W | 3.87
95 | G1L | 2.86
96 | Q6A | 2.06
97 | S15W | 3.71
98 | S15A | 2.47
99 | S15C | 2.1
100 | S15Y | 3.78

Row | Variant | protein stability index
101 | S15P | 2.59
102 | S8E | 2.74
103 | S8H | 4.01
104 | I20T | 2.86
105 | L19P | 2.14
106 | L19N | 3
107 | K23Q | 1.58
108 | K23F | 3.02
109 | T7Q | 2.12
110 | T7M | 2.6
111 | T7H | 2.67
112 | D11F | 2.51
113 | D11P | 3.34
114 | D11R | 3.33
115 | D11A | 2.37
116 | R18C | 2.37
117 | F12G | 3.04
118 | F12D | 3.14
119 | F12A | 3.27
120 | F12K | 2.36
